Assays:
Experiment in all cases: Lrig-1 peptide microarray (15-mers, 14 aa overlap), H6 at 1, 10 and 100 µg/ml
[1] = molecular target: T1, Lrig-1 epitope peptide SEQ ID NO: 24
T1 peptide: RQVTFGHEGRY
Procedure: (§1) Pre-staining of a Lrig-1 peptide microarray copy using secondary and control antibodies in incubation buffer was performed to identify whether they can interact with antigen-derived peptides that can interfere with the main assays. Subsequent incubation of other Lrig-1 peptide microarray copies with the H6 monoclonal antibody of Production Example 8 (1 μg/ml, 10 μg/ml, and 100 μg/ml) in incubation buffer was followed by staining with secondary and control antibodies. Read-out was performed at a scanning intensity of 7/7 (red/green) using the LI-COR Odyssey Imaging System. Quantification of spot intensities and peptide annotation were based on the 16-bit gray scale tiff files. Microarray image analysis was done with PepSlide® Analyzer.

[2] = molecular target: T2, Lrig-1 epitope peptide SEQ ID NO: 28
T2 peptide: FFITDVKIDDAGVYS
Procedure: as §1

[3] = molecular target: T3, Lrig-1 epitope peptide SEQ ID NO: 19
T3 peptide: TEVRNTCFPHGPPI
Procedure: as §1

[4] = molecular target: T4, Lrig-1 epitope peptide SEQ ID NO: 27
T4 peptide: RRMHVMPDDDVFF
Procedure: as §1

[5] = molecular target: T5, Lrig-1 epitope peptide SEQ ID NO: 18
T5 construct: it was not itself a separately tested peptide
T5 peptide: WTRSLNLSYNKL
Procedure: as §1

[6] = molecular target: T6, Lrig-1 epitope peptide SEQ ID NO: 23
T6 peptide: WLPPWLIGRMLQAF
Procedure: as §1

[7] = molecular target: T7, Lrig-1 epitope peptide SEQ ID NO: 20
T7 peptide: RLTQLDLNRNRIR
Procedure: as §1

[8] = molecular target: T8, Lrig-1 epitope peptide SEQ ID NO: 21
T8 peptide: DLNRNRIRLIEGLTF
Procedure: as §1

[9] = molecular target: T9, Lrig-1 epitope peptide SEQ ID NO: 26
T9 peptide: RLTVNVLPSFTKTPH
Procedure: as §1

[10] = molecular target: T10, Lrig-1 epitope peptide SEQ ID NO: 22
T10 peptide: NSIARIHRKGW
Procedure: as §1

[11] = molecular target: T11, Lrig-1 epitope peptide SEQ ID NO: 25
T11 peptide: FGHEGRYQCVITNHF
Procedure: as §1

binding result [1]: binds
binding result [2]: binds
binding result [3]: binds
binding result [4]: binds
binding result [5]: binds
binding result [6]: binds
binding result [7]: binds
binding result [8]: binds
binding result [9]: binds
binding result [10]: binds
binding result [11]: binds
B1: H6 clone monoclonal antibody (Production Example 8) (antibody, mouse IgG2a, V domains shown)
VH: EVQLLESGGGLVQPGGSLRLSCAASGFTFSNYAMSWVRQAPGKGLEWVSVISHGGGSTYYADSVKGRFTISRDNSKNTLYLQMNSLRAEDTAVYYCARVISNCHLGVCYYSNGMDVWGQGTLVTVSS
VL: QSVLTQPPSASGTPGQRVTISCSGSSSNIGNNDVYWYQQLPGTAPKLLIYSDSQRPSGVPDRFSGSKSGTSASLAISGLRSEDEADYYCGTWDYSLSGYVFGGGTKLTVLR
notes: also called H6 monoclonal antibody

Source: patent publication US20250145708A1 (GOOD T CELLS, published 2025)
